Measurements reported in article PMC9482650, “Quantitative fragmentomics allow affinity mapping of interactomes” (Nature Communications, 2022).

T1: FRMPD1, Q5SYB0
T1 sequence (Q5SYB0 52-145, limits assumed, looked up): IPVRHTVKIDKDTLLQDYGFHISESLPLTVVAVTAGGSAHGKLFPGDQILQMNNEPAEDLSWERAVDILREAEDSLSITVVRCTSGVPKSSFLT

T2: APBA2_1, Q99767
T2 sequence (Q99767 563-664, limits assumed, looked up): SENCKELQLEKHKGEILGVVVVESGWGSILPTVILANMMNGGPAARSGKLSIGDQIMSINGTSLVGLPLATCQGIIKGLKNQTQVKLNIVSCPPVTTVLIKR

T3: SIPA1L2, Q9P2F8
T3 sequence (Q9P2F8 945-1036, limits assumed, looked up): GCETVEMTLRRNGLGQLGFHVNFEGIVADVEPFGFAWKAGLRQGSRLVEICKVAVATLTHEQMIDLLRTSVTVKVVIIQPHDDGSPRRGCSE

T4: APBA1_2, Q02410
T4 sequence (Q02410 742-832, limits assumed, looked up): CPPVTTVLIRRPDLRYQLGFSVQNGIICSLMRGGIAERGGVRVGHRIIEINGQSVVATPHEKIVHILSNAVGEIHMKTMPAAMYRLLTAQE

T5: RADIL, Q96JH8
T5 sequence (Q96JH8 971-1071, limits assumed, looked up): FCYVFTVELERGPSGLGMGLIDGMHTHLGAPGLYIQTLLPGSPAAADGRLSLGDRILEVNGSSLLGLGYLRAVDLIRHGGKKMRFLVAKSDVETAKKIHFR

T6: LNX2_2, Q8N448
T6 sequence (Q8N448 334-432, limits assumed, looked up): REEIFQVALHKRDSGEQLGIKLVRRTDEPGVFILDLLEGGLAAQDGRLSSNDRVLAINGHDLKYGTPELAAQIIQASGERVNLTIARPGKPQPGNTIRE

T7: LRRC7, Q96NW7
T7 sequence (Q96NW7 1440-1537, limits assumed, looked up): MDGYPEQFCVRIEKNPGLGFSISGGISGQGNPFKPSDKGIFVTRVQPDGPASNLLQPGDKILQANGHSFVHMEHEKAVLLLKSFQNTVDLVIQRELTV

T8: MPP2, Q14168
T8 sequence (Q14168 180-250, limits assumed, looked up): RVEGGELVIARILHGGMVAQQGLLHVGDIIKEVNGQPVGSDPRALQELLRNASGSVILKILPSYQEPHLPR

T9: APBA2_2, Q99767
T9 sequence (Q99767 654-744, limits assumed, looked up): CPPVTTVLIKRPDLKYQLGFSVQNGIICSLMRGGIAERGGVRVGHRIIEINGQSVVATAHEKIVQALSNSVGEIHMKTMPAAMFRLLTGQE

T10: GRIP1_5, Q9Y3R0
T10 sequence (Q9Y3R0 568-668, limits assumed, looked up): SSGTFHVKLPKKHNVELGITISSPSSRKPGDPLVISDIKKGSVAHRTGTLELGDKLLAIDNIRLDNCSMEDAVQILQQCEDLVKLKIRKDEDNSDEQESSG

T11: DLG3_2, Q92796
T11 sequence (Q92796 221-321, limits assumed, looked up): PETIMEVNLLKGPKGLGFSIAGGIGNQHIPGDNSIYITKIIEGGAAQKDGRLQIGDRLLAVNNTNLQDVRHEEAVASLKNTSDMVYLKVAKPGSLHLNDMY

T12: TIAM2, Q8IVF5
T12 sequence (Q8IVF5 885-986, limits assumed, looked up): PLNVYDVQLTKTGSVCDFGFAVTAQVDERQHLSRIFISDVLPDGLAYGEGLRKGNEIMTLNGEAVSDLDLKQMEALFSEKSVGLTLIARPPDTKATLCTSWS

T13: NHERF3_4, Q5T2W1
T13 sequence (Q5T2W1 373-468, limits assumed, looked up): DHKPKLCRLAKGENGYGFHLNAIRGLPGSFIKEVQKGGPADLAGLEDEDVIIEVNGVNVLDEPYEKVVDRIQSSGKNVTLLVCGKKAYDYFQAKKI


Tests used:
Experiment in all cases: holdup assay
Parameters in all cases: key: below the threshold = too weak to quantify, mostly under pKd 3.1 to 4
Details in all cases: plain residues with an end cap or a label only (N-terminal biotin on a linker: ado-ado)
PDLIM1, O00151 = biological target: PDLIM1, O00151
MAGI2_5, Q86UL8 = biological target: MAGI2_5, Q86UL8
DLG4_1, P78352 = biological target: DLG4_1, P78352
TJP1_2, Q07157 = biological target: TJP1_2, Q07157
FRMPD1, Q5SYB0 = biological target: T1, FRMPD1, Q5SYB0
APBA2_1, Q99767 = biological target: T2, APBA2_1, Q99767
FRMPD3, Q5JV73 = biological target: FRMPD3, Q5JV73
MAGI2_4, Q86UL8 = biological target: MAGI2_4, Q86UL8
NOS1, P29475 = biological target: NOS1, P29475
MAST2, Q6P0Q8 = biological target: MAST2, Q6P0Q8
LNX1_2, Q8TBB1 = biological target: LNX1_2, Q8TBB1
Inadl_6, Q8NI35 = biological target: Inadl_6, Q8NI35
SIPA1L2, Q9P2F8 = biological target: T3, SIPA1L2, Q9P2F8
APBA1_2, Q02410 = biological target: T4, APBA1_2, Q02410
RADIL, Q96JH8 = biological target: T5, RADIL, Q96JH8
LNX2_2, Q8N448 = biological target: T6, LNX2_2, Q8N448
LRRC7, Q96NW7 = biological target: T7, LRRC7, Q96NW7
MPP2, Q14168 = biological target: T8, MPP2, Q14168
APBA2_2, Q99767 = biological target: T9, APBA2_2, Q99767
GRIP1_5, Q9Y3R0 = biological target: T10, GRIP1_5, Q9Y3R0
SCRIB_3, Q14160 = biological target: SCRIB_3, Q14160
DLG3_2, Q92796 = biological target: T11, DLG3_2, Q92796
TIAM2, Q8IVF5 = biological target: T12, TIAM2, Q8IVF5
NHERF3_4, Q5T2W1 = biological target: T13, NHERF3_4, Q5T2W1
GRIP2_5, Q9C0E4 = biological target: GRIP2_5, Q9C0E4
GRIP2_5, Q9C0E4, sequence (Q9C0E4 544-642): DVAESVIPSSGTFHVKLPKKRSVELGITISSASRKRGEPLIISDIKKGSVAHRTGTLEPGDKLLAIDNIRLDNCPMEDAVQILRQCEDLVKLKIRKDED

DLG4_1, P78352, sequence (P78352 62-152): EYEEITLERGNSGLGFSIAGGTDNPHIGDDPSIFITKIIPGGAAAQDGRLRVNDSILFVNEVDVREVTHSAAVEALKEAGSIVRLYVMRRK
FRMPD3, Q5JV73, sequence (Q5JV73 12-100): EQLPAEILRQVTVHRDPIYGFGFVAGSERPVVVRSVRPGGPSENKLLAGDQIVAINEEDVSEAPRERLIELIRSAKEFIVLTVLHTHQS
SCRIB_3, Q14160, sequence (Q14160 999-1103): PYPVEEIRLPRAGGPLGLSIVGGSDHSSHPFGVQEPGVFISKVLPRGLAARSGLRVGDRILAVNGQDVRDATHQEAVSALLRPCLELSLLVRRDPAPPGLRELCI
Inadl_6, Q8NI35, sequence (Q8NI35 1058-1167): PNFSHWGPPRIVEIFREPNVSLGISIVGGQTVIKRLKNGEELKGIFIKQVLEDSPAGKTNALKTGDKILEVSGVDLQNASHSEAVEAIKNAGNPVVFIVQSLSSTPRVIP
NOS1, P29475, sequence (P29475 9-101): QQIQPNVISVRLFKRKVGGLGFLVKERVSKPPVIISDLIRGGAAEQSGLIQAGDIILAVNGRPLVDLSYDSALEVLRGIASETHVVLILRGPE
TJP1_2, Q07157, sequence (Q07157 181-274): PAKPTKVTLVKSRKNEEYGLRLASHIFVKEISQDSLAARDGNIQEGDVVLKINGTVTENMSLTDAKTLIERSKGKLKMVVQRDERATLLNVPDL
PDLIM1, O00151, sequence (O00151 1-87): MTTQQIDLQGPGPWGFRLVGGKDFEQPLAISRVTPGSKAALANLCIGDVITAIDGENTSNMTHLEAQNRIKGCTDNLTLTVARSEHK
MAGI2_5, Q86UL8, sequence (Q86UL8 915-1017): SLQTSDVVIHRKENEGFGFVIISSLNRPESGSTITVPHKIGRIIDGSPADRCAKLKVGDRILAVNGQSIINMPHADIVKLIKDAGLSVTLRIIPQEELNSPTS
MAGI2_4, Q86UL8, sequence (Q86UL8 772-865): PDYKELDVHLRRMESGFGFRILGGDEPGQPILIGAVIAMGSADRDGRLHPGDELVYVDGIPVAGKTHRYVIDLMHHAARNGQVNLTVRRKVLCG
LNX1_2, Q8TBB1, sequence (Q8TBB1 371-470): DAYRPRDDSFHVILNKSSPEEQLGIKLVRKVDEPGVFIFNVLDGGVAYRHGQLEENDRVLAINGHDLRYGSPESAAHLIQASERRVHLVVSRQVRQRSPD
MAST2, Q6P0Q8, sequence (Q6P0Q8 1099-1202): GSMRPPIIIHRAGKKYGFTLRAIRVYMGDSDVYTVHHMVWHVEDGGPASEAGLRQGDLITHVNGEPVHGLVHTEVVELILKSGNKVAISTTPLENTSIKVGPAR

Binder | pKd (PDLIM1, O00151) | pKd (MAGI2_5, Q86UL8) | pKd (DLG4_1, P78352) | pKd (TJP1_2, Q07157) | pKd (FRMPD1, Q5SYB0) | pKd (APBA2_1, Q99767) | pKd (FRMPD3, Q5JV73) | pKd (MAGI2_4, Q86UL8) | pKd (NOS1, P29475) | pKd (MAST2, Q6P0Q8) | pKd (LNX1_2, Q8TBB1) | pKd (Inadl_6, Q8NI35) | pKd (SIPA1L2, Q9P2F8) | pKd (APBA1_2, Q02410) | pKd (RADIL, Q96JH8) | pKd (LNX2_2, Q8N448) | pKd (LRRC7, Q96NW7) | pKd (MPP2, Q14168) | pKd (APBA2_2, Q99767) | pKd (GRIP1_5, Q9Y3R0) | also measured
ILRKSTTTTV [PRR16, Q569H4] | below the threshold | below the threshold | 4.78 | below the threshold | below the threshold | below the threshold | below the threshold | 4.14 | below the threshold | 5.05 | 3.8 | below the threshold | below the threshold | below the threshold | 3.64 | 4.84 | below the threshold | below the threshold | below the threshold | below the threshold | pKd (SCRIB_3, Q14160): 3.67; pKd (DLG3_2, Q92796): 5.07; pKd (TIAM2, Q8IVF5): below the threshold; pKd (NHERF3_4, Q5T2W1): below the threshold; pKd (GRIP2_5, Q9C0E4): below the threshold
TNSRHGETTV [FZD2, Q14332] | below the threshold | 3.6 | 4.85 | below the threshold | below the threshold | below the threshold | below the threshold | 4.1 | 3.79 | 5.05 | 3.78 | below the threshold | below the threshold | 3.71 | 4 | 4.83 | below the threshold | below the threshold | below the threshold | below the threshold | pKd (SCRIB_3, Q14160): 4.62; pKd (DLG3_2, Q92796): 4.72; pKd (TIAM2, Q8IVF5): below the threshold; pKd (NHERF3_4, Q5T2W1): below the threshold; pKd (GRIP2_5, Q9C0E4): below the threshold
ARESQKVSHV [FAM110B, Q8TC76] | below the threshold | 3.66 | 4.06 | below the threshold | below the threshold | below the threshold | below the threshold | below the threshold | 3.55 | 4.76 | below the threshold | 4.05 | below the threshold | 4.41 | 4.55 | 4 | below the threshold | below the threshold | below the threshold | below the threshold | pKd (SCRIB_3, Q14160): 4.47; pKd (DLG3_2, Q92796): 4.22; pKd (TIAM2, Q8IVF5): below the threshold; pKd (NHERF3_4, Q5T2W1): below the threshold; pKd (GRIP2_5, Q9C0E4): below the threshold
SPDRDRESIV [SCN5A, Q14524] | below the threshold | 4.12 | 4.46 | 3.49 | below the threshold | below the threshold | below the threshold | 3.63 | 3.7 | 4.53 | below the threshold | below the threshold | below the threshold | 3.55 | 4.12 | 4.44 | 3.48 | below the threshold | below the threshold | below the threshold | pKd (SCRIB_3, Q14160): 3.86; pKd (DLG3_2, Q92796): 4.57; pKd (TIAM2, Q8IVF5): below the threshold; pKd (NHERF3_4, Q5T2W1): below the threshold; pKd (GRIP2_5, Q9C0E4): below the threshold
LESTTVGTSV [KARS1, Q15046] | below the threshold | 4.06 | 4.13 | below the threshold | below the threshold | below the threshold | below the threshold | 4.31 | 3.86 | 5.02 | below the threshold | below the threshold | below the threshold | 4.69 | below the threshold | 4.39 | below the threshold | below the threshold | below the threshold | below the threshold | pKd (SCRIB_3, Q14160): 4.4; pKd (DLG3_2, Q92796): 4.51; pKd (TIAM2, Q8IVF5): 4.05; pKd (NHERF3_4, Q5T2W1): below the threshold; pKd (GRIP2_5, Q9C0E4): below the threshold
STKRKLASAV [NCF1, P14598] | below the threshold | 3.99 | below the threshold | below the threshold | below the threshold | below the threshold | below the threshold | below the threshold | 4.07 | 4.54 | below the threshold | below the threshold | below the threshold | 3.88 | below the threshold | below the threshold | below the threshold | below the threshold | below the threshold | below the threshold | pKd (SCRIB_3, Q14160): 3.55; pKd (DLG3_2, Q92796): 4.45; pKd (TIAM2, Q8IVF5): 3.75; pKd (NHERF3_4, Q5T2W1): below the threshold; pKd (GRIP2_5, Q9C0E4): below the threshold
